# The supplement of paper PMC9112550, “Optimization of the antimicrobial peptide Bac7 by deep mutational scanning” (BMC Biology, 2022)
# Tested on: Escherichia coli TOP10
# Test: shrunken log2 fold change of peptide-encoding DNA abundance (4.5 h post-induction vs induction); higher = less antimicrobial activity (less host growth inhibition)
# Details: time post-induction: 4.5 h; library: site-saturation at positions 5, 18, 19, 20
# 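Also: peptides expressed intracellularly from a pBAD plasmid library in pooled LB shake-flask culture, induced with 0.3% L-arabinose, DNA abundance read by NGS, three biological replicates, DESeq2 with apeglm shrinkage.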
sequence,measurement,value
RRIRVRPPRLPRPRPRPNIVPRP,shrunken log2 fold change,0.000276
RRIRSRPPRLPRPRPRPPKYPRP,shrunken log2 fold change,-0.164
RRIRQRPPRLPRPRPRPGDMPRP,shrunken log2 fold change,-0.164
RRIRPRPPRLPRPRPRPYFYPRP,shrunken log2 fold change,-0.787
RRIRQRPPRLPRPRPRPPYTPRP,shrunken log2 fold change,-0.552
RRIRTRPPRLPRPRPRPAPSPRP,shrunken log2 fold change,0.231
RRIRSRPPRLPRPRPRPDGQPRP,shrunken log2 fold change,-0.00208
RRIRIRPPRLPRPRPRPPDLPRP,shrunken log2 fold change,-0.00973
RRIRNRPPRLPRPRPRPDRRPRP,shrunken log2 fold change,-0.115
RRIRLRPPRLPRPRPRPQEHPRP,shrunken log2 fold change,-0.167
RRIRWRPPRLPRPRPRPTYMPRP,shrunken log2 fold change,-0.0572
RRIRVRPPRLPRPRPRPLKFPRP,shrunken log2 fold change,0.044
RRIRKRPPRLPRPRPRPSVLPRP,shrunken log2 fold change,0.0575
RRIRQRPPRLPRPRPRPDFHPRP,shrunken log2 fold change,0.0254
RRIRYRPPRLPRPRPRPIMIPRP,shrunken log2 fold change,-0.0191
RRIRLRPPRLPRPRPRPYCYPRP,shrunken log2 fold change,-0.238
RRIRQRPPRLPRPRPRPNATPRP,shrunken log2 fold change,0.251
RRIRVRPPRLPRPRPRPQHTPRP,shrunken log2 fold change,-0.0855
RRIRFRPPRLPRPRPRPECWPRP,shrunken log2 fold change,0.675
RRIRARPPRLPRPRPRPTPGPRP,shrunken log2 fold change,0.826
RRIRARPPRLPRPRPRPPAHPRP,shrunken log2 fold change,0.912
RRIRNRPPRLPRPRPRPRSDPRP,shrunken log2 fold change,0.0587
RRIRFRPPRLPRPRPRPCANPRP,shrunken log2 fold change,0.133
RRIRLRPPRLPRPRPRPMKQPRP,shrunken log2 fold change,0.132
RRIRHRPPRLPRPRPRPLFGPRP,shrunken log2 fold change,-0.0987
RRIRSRPPRLPRPRPRPFMMPRP,shrunken log2 fold change,-0.643
RRIRFRPPRLPRPRPRPENMPRP,shrunken log2 fold change,-0.158
RRIRFRPPRLPRPRPRPQLGPRP,shrunken log2 fold change,0.1
RRIRERPPRLPRPRPRPYMVPRP,shrunken log2 fold change,-0.832
RRIRRRPPRLPRPRPRPIYDPRP,shrunken log2 fold change,-0.0515
RRIRVRPPRLPRPRPRPSWYPRP,shrunken log2 fold change,-0.698
RRIRERPPRLPRPRPRPDHLPRP,shrunken log2 fold change,-0.223
RRIRHRPPRLPRPRPRPYHSPRP,shrunken log2 fold change,-0.0215
RRIRDRPPRLPRPRPRPLFLPRP,shrunken log2 fold change,-0.13
RRIRDRPPRLPRPRPRPARGPRP,shrunken log2 fold change,0.793
RRIRMRPPRLPRPRPRPDDEPRP,shrunken log2 fold change,0.123
RRIRHRPPRLPRPRPRPKWMPRP,shrunken log2 fold change,-0.123
RRIRWRPPRLPRPRPRPSIYPRP,shrunken log2 fold change,-0.305
RRIRLRPPRLPRPRPRPYIYPRP,shrunken log2 fold change,-1.24
RRIRQRPPRLPRPRPRPPLWPRP,shrunken log2 fold change,0.494
RRIRGRPPRLPRPRPRPCSYPRP,shrunken log2 fold change,0.089
RRIRRRPPRLPRPRPRPGAGPRP,shrunken log2 fold change,0.475
RRIRVRPPRLPRPRPRPIPQPRP,shrunken log2 fold change,0.485
RRIRDRPPRLPRPRPRPNDYPRP,shrunken log2 fold change,-0.197
RRIRPRPPRLPRPRPRPYATPRP,shrunken log2 fold change,-0.446
RRIRCRPPRLPRPRPRPLHGPRP,shrunken log2 fold change,-0.089
RRIRIRPPRLPRPRPRPPNWPRP,shrunken log2 fold change,0.0636
RRIRNRPPRLPRPRPRPMRAPRP,shrunken log2 fold change,0.517
RRIRYRPPRLPRPRPRPFVKPRP,shrunken log2 fold change,-0.79
RRIRNRPPRLPRPRPRPKPHPRP,shrunken log2 fold change,0.174
RRIRVRPPRLPRPRPRPVVLPRP,shrunken log2 fold change,0.0921
RRIRVRPPRLPRPRPRPKIRPRP,shrunken log2 fold change,0.161
RRIRERPPRLPRPRPRPGQYPRP,shrunken log2 fold change,-0.113
RRIRYRPPRLPRPRPRPCGDPRP,shrunken log2 fold change,-0.0424
RRIRPRPPRLPRPRPRPSEQPRP,shrunken log2 fold change,-0.233
RRIRARPPRLPRPRPRPTYFPRP,shrunken log2 fold change,0.161
RRIRERPPRLPRPRPRPNRCPRP,shrunken log2 fold change,-0.00988
RRIRHRPPRLPRPRPRPMPDPRP,shrunken log2 fold change,-0.276
RRIRWRPPRLPRPRPRPTRCPRP,shrunken log2 fold change,0.0338
RRIRSRPPRLPRPRPRPYKRPRP,shrunken log2 fold change,-0.618
RRIRPRPPRLPRPRPRPDMQPRP,shrunken log2 fold change,-0.21
RRIRKRPPRLPRPRPRPRQFPRP,shrunken log2 fold change,0.192
RRIRSRPPRLPRPRPRPACRPRP,shrunken log2 fold change,0.212
RRIRYRPPRLPRPRPRPICTPRP,shrunken log2 fold change,-0.376
RRIRCRPPRLPRPRPRPCCTPRP,shrunken log2 fold change,-0.238
RRIRFRPPRLPRPRPRPFPRPRP,shrunken log2 fold change,-0.0288
RRIRNRPPRLPRPRPRPSVSPRP,shrunken log2 fold change,-0.44
RRIRTRPPRLPRPRPRPWSGPRP,shrunken log2 fold change,-0.187
RRIRFRPPRLPRPRPRPPNLPRP,shrunken log2 fold change,-0.0642
RRIRWRPPRLPRPRPRPMYFPRP,shrunken log2 fold change,-0.555
RRIRTRPPRLPRPRPRPDQDPRP,shrunken log2 fold change,-0.0328
RRIRKRPPRLPRPRPRPTAFPRP,shrunken log2 fold change,0.355
RRIRPRPPRLPRPRPRPKQNPRP,shrunken log2 fold change,0.0525
RRIRARPPRLPRPRPRPCSCPRP,shrunken log2 fold change,0.0516
RRIRYRPPRLPRPRPRPFAAPRP,shrunken log2 fold change,-0.508
RRIRWRPPRLPRPRPRPFMSPRP,shrunken log2 fold change,-0.0321
RRIRFRPPRLPRPRPRPANNPRP,shrunken log2 fold change,-0.917
RRIRGRPPRLPRPRPRPVGTPRP,shrunken log2 fold change,0.304
RRIRARPPRLPRPRPRPQEDPRP,shrunken log2 fold change,0.124
RRIRARPPRLPRPRPRPETLPRP,shrunken log2 fold change,1.15
RRIRVRPPRLPRPRPRPIYIPRP,shrunken log2 fold change,-0.755
RRIRNRPPRLPRPRPRPYKTPRP,shrunken log2 fold change,-0.0391
RRIRYRPPRLPRPRPRPHPGPRP,shrunken log2 fold change,-0.727
RRIRDRPPRLPRPRPRPEKAPRP,shrunken log2 fold change,0.236
RRIRWRPPRLPRPRPRPWTWPRP,shrunken log2 fold change,0.0111
RRIRVRPPRLPRPRPRPLNPPRP,shrunken log2 fold change,-0.113
RRIRVRPPRLPRPRPRPLEEPRP,shrunken log2 fold change,0.0793
RRIRQRPPRLPRPRPRPFTNPRP,shrunken log2 fold change,-0.0235
RRIRARPPRLPRPRPRPRNVPRP,shrunken log2 fold change,0.0957
RRIRYRPPRLPRPRPRPKVCPRP,shrunken log2 fold change,0.0165
RRIRNRPPRLPRPRPRPSANPRP,shrunken log2 fold change,-0.379
RRIRYRPPRLPRPRPRPEIRPRP,shrunken log2 fold change,-0.0132
RRIRRRPPRLPRPRPRPHWSPRP,shrunken log2 fold change,-0.0676
RRIRTRPPRLPRPRPRPWAKPRP,shrunken log2 fold change,0.057
RRIRLRPPRLPRPRPRPNAGPRP,shrunken log2 fold change,0.0644
RRIRNRPPRLPRPRPRPYEDPRP,shrunken log2 fold change,-0.173
RRIRWRPPRLPRPRPRPGSIPRP,shrunken log2 fold change,-0.0682
RRIRLRPPRLPRPRPRPTYTPRP,shrunken log2 fold change,-0.317
RRIRLRPPRLPRPRPRPKFTPRP,shrunken log2 fold change,-0.289
RRIRARPPRLPRPRPRPCQWPRP,shrunken log2 fold change,-0.0491
RRIRMRPPRLPRPRPRPKSAPRP,shrunken log2 fold change,0.389
RRIRARPPRLPRPRPRPKGAPRP,shrunken log2 fold change,0.514
RRIRMRPPRLPRPRPRPTKKPRP,shrunken log2 fold change,0.0359
RRIRERPPRLPRPRPRPEQIPRP,shrunken log2 fold change,-0.207
RRIRKRPPRLPRPRPRPRNPPRP,shrunken log2 fold change,0.358
RRIRWRPPRLPRPRPRPHCHPRP,shrunken log2 fold change,-0.254
RRIRYRPPRLPRPRPRPQTSPRP,shrunken log2 fold change,-1.22
RRIRNRPPRLPRPRPRPCTSPRP,shrunken log2 fold change,-0.0712
RRIRMRPPRLPRPRPRPKTDPRP,shrunken log2 fold change,1.32
RRIRQRPPRLPRPRPRPKQPPRP,shrunken log2 fold change,0.0884
RRIRCRPPRLPRPRPRPPTIPRP,shrunken log2 fold change,-0.158
RRIRSRPPRLPRPRPRPWEYPRP,shrunken log2 fold change,-0.0607
RRIRCRPPRLPRPRPRPKAHPRP,shrunken log2 fold change,0.205
RRIRKRPPRLPRPRPRPCPLPRP,shrunken log2 fold change,-0.24
RRIRDRPPRLPRPRPRPFVWPRP,shrunken log2 fold change,0.525
RRIRQRPPRLPRPRPRPQEMPRP,shrunken log2 fold change,-0.119
RRIRYRPPRLPRPRPRPTCSPRP,shrunken log2 fold change,-0.0789
RRIRARPPRLPRPRPRPHLYPRP,shrunken log2 fold change,-0.218
RRIRHRPPRLPRPRPRPPDVPRP,shrunken log2 fold change,0.113
RRIRYRPPRLPRPRPRPQMLPRP,shrunken log2 fold change,-0.846
RRIRNRPPRLPRPRPRPNMPPRP,shrunken log2 fold change,-0.407
RRIRPRPPRLPRPRPRPWKNPRP,shrunken log2 fold change,-0.0413
RRIRLRPPRLPRPRPRPLQNPRP,shrunken log2 fold change,0.166
RRIRNRPPRLPRPRPRPRNCPRP,shrunken log2 fold change,-0.0144
RRIRCRPPRLPRPRPRPNDQPRP,shrunken log2 fold change,0.0359
